According to IntAct's records for PubMed 22578008:

B1: Laforin (Mus musculus), Q9WUA5 (parent)
chain: MLFRFGVVVPPAVAGARQELLLAGSRPELGRWEPHGAVRLRPAGTAAGAAALALQEPGLWLAEVELEAYEEAGGAEPGRVDTFWYKFLQREPGGELHWEGNGPHHDRCCTYNEDNLVDGVYCLPVGHWIEATGHTNEMKHTTDFYFNIAGHQAMHYSRILPNIWLGSCPRQLEHVTIKLKHELGVTAVMNFQTEWDIIQNSSGCNRYPEPMTPDTMMKLYKEEGLSYIWMPTPDMSTEGRVQMLPQAVCLLHALLENGHTVYVHCNAGVGRSTAAVCGWLHYVIGWNLRKVQYFIMAKRPAVYIDEDALAQAQQDFSQKFGKVHSSICAL
partner: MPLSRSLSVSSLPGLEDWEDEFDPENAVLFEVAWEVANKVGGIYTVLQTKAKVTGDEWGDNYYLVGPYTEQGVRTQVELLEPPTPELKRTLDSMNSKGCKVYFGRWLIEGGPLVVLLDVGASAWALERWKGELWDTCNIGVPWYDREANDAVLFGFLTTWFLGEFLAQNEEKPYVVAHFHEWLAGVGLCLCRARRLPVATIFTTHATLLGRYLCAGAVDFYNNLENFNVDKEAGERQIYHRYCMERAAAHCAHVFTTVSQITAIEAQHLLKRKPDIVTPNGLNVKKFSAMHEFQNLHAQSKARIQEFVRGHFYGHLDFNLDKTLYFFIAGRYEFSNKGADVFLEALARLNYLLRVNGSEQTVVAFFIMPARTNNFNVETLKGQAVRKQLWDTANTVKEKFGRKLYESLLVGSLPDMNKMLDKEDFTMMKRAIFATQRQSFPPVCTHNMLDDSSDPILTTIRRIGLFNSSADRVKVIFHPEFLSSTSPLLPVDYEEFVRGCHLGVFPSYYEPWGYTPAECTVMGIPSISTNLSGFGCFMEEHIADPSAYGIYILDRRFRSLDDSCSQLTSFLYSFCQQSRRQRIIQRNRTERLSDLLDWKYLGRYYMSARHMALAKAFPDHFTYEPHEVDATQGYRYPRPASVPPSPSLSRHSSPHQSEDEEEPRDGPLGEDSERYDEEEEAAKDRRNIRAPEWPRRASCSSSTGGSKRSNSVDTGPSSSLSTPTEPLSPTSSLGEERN
B2: E3 ubiquitin-protein ligase NHLRC1 (Homo sapiens), Q6VVB1 (parent)
chain: MAAEASESGPALHELMREAEISLLECKVCFEKFGHRQQRRPRNLSCGHVVCLACVAALAHPRTLALECPFCRRACRGCDTSDCLPVLHLIELLGSALRQSPAAHRAAPSAPGALTCHHTFGGWGTLVNPTGLALCPKTGRVVVVHDGRRRVKIFDSGGGCAHQFGEKGDAAQDIRYPVDVTITNDCHVVVTDAGDRSIKVFDFFGQIKLVIGGQFSLPWGVETTPQNGIVVTDAEAGSLHLLDVDFAEGVLRRTERLQAHLCNPRGVAVSWLTGAIAVLEHPLALGTGVCSTRVKVFSSSMQLVGQVDTFGLSLYFPSKITASAVTFDHQGNVIVADTSGPAILCLGKPEEFPVPKPMVTHGLSHPVALTFTKENSLLVLDTASHSIKVYKVDWG
partner: B1 chain

Variants of: B1
Details: with gys1_mouse Gys1, Q9Z1E4
In the case of C265S, the “effect of a mutation on the interaction” value is reported as “increasing interaction”.

Variants of: B2
Details: with epm2a_mouse Epm2a
With Q302P the “effect of a mutation on the interaction” value was “decreasing interaction”.

Variants of: B2
Details: with epm2a_mouse Epm2a
Remark: another data set of the same source
With D233A the “effect of a mutation on the interaction” value was “disrupting interaction”.

Variants of: B2
Details: with epm2a_mouse Epm2a
Remark: another data set of the same source
In the case of D146N, the “effect of a mutation on the interaction” value is reported as “disrupting interaction”.

Variants of: B2
Details: with epm2a_mouse Epm2a
Remark: another data set of the same source
With L87P the “effect of a mutation on the interaction” value was “decreasing interaction”.

Variants of: B2
Details: with epm2a_mouse Epm2a
Remark: another data set of the same source
In the case of P264H, the “effect of a mutation on the interaction” value is reported as “disrupting interaction”.

Variants of: B2
Details: with epm2a_mouse Epm2a
Remark: another data set of the same source
I198N was tested, and the “effect of a mutation on the interaction” value was “disrupting interaction”.

Variants of: B2
Details: with epm2a_mouse Epm2a
Remark: another data set of the same source
With C26S the “effect of a mutation on the interaction” value was “decreasing interaction”.

Variants of: B2
Details: with epm2a_mouse Epm2a
Remark: another data set of the same source
E280K was tested, and the “effect of a mutation on the interaction” value was “disrupting interaction”.
